From paper PMC10844294 come the findings set out here.

By stoichiometry N is commonly meant the number of molecules, sites or subunits per partner or assembly.

In the test the target is B.1.1.529 (BA.1) S1 + S2 trimer-His Recombinant Protein (SARS-CoV-2) (UniProt P0DTC2). In words: cryo-EM structure.

For the substance “B.1.1.529 (BA.1) S1 + S2 trimer-His Recombinant Protein (from UniProt P0DTC2 324-533) (natural protein)”, the stoichiometry N was 3.
